Experimental data reported in article PMC7898468, “TrkA-mediated endocytosis of p75-CTF prevents cholinergic neuron death upon γ-secretase inhibition” (Life Science Alliance, 2021).

Tests used:
[1] = target: HA-p75-CTF (truncated p75NTR construct that mimics the endogenously generated C-terminal fragment), wild type (UniProt P07174); experiment: non-reducing SDS-PAGE and Western blot; total membranes (and lysates) of HeLa cells transfected with p75-CTF constructs, 16 h with or without 10 uM compound E; sample buffer with 1% beta-mercaptoethanol keeps the C257 disulfide dimers; anti-p75NTR blot; shows only SDS-resistant disulfide dimers
[2] = target: endogenous p75-CTF of mouse dorsal root ganglia neurons (mouse (endogenous in dorsal root ganglia)); experiment: non-reducing SDS-PAGE and Western blot; lysate of dorsal root ganglia from P2 mice, 24 h at 37 C with or without compound E (10 uM)
[3] = target: the molecule itself; experiment: SDS-PAGE and Western blot with or without DTT; purified C101-p75-3xFLAG substrates, with or without DTT (20 mM), anti-FLAG blot

In the case of “HA-p75-CTF (truncated p75NTR construct that mimics the endogenously generated C-terminal fragment), wild type (from UniProt P07174 245-425) (domain or fragment)”, the stoichiometry N [1] is reported as 2.

“endogenous p75-CTF of mouse dorsal root ganglia neurons (domain or fragment)” gave a stoichiometry N [2] of 2.

B1: C101-p75-wt-3xFlag (domain or fragment, rat)
chain: MVTTVMGSSQPVVTRGTTDNLIPVYCSILAAVVVGLVAYIAFKRWNSCKQNKQGANSRPVNQTPPPEGEKLHSDSGISVDSQSLHDQQTHTQTASGQALKG
notes: rat p75NTR, transmembrane domain and juxtamembrane region; Forms DTT-sensitive disulfide dimers; also called p75-C101-wt; C101-wt; source: COS1, transiently transfected, purified (anti-FLAG M2 agarose); not shown: 3xFLAG, C-terminal, kept
With B1 the “stoichiometry N” value [3] was 2.
